System: T1, OC[C@@H](O)[C@@H](O[C@@H]1O[C@H](CO[C@H]2OC[C@@H](O)[C@H](O)[C@H]2O)[C@@H](O[C@@H]2O[C@H](CO[C@H]3OC[C@@H](O)[C@H](O)[C@H]3O)[C@@H](O[C@@H]3O[C@H](CO[C@H]4OC[C@@H](O)[C@H](O)[C@H]4O)[C@@H](O)[C@H](O)[C@H]3O)[C@H](O)[C@H]2O)[C@H](O)[C@H]1O)[C@H](O)[C@@H](O)CO
T1 construct: called FvXTH6 by Opazo et al. 2017
Assay: radiochemical XET assay, 3H incorporation into xyloglucan, Michaelis-Menten
Type: biochemical, Fragaria vesca
Conditions: acceptor substrate, donor 1% (w/v) tamarind xyloglucan, [3H]XXXGol diluted with unlabelled XXXGol (0-357 μM), labelled compound, general XET assay: 100 mM Na succinate pH 5.5, 25 °C

For FvXTH9 (Fragaria vesca subsp. vesca), the Km was 43 µM.

From paper PMC8653885, “Higher expression of the strawberry xyloglucan endotransglucosylase/hydrolase genes FvXTH9 and FvXTH6 accelerates fruit ripening” (The Plant Journal, 2019)
